The text below walks through data of article PMC10783506.

Data set [1] relates to LGP2 (insect-cell expressed) (Homo sapiens). Description: fluorescence polarization. The following applies: Buffer A: 50 mM MOPS pH 7.4, 5 mM MgCl2, 5 mM DTT, 0.05 mM BSA, 0.01% Tween20, 0-100 mM NaCl (or KCl), with or without ATP, EMSA at 4 C, stopped-flow at 25 C …. (Polarisation of emitted light reports the rotation of a fluorescent probe.)
A further data set concerns RIG-I. Nature of the data set: EMSA. The following applies: 60 nM protein, 20 nM RNA, monovalent streptavidin; mainly monomer; m7G cap and 2'-O-methyl on first nucleotide (Cap1); biotin at distal end; Buffer A: 50 mM MOPS pH 7.4, 5 mM MgCl2, 5 mM DTT, 0.05 mM BSA, 0.01% Tween20; 0-100 mM NaCl (or KCl), with or without ATP; EMSA at 4 C, stopped-flow at 25 C ….

For orientation: Kd means the equilibrium constant for the complex coming apart. A higher Kd goes with lower affinity.

3'-overhang HP RNA displayed a binding signal (fold Kd vs 5'OH blunt HP) in data set [1] (100 mM KCl) of 10. As to 5'OH blunt HP RNA, the Kd in data set [1] (5'OH) amounted to 10 nM. That is a double-digit nanomolar value. In data set [1] (5'ppp), 5'ppp blunt HP RNA came in with a Kd of 10 nM. As for Cap1 ds27 RNA-biotin, the binding signal in the data set on RIG-I amounted to 50 % RNA bound. For the substance ds16 DNA, the Kd in data set [1] (0 mM NaCl, ATP had little effect on Kd) came to 200 nM. That is a sub-micromolar value. stem ds26 RNA: the Kd in data set [1] (0 mM NaCl, ATP without effect, 17 bp dsRNA flanked by 4 bp dsDNA ends) is 80 nM.
